Source: the Immune Epitope Database (IEDB)

Experiments:
HLA-B*18:01 [1] = assay: IEDB peptide-MHC binding, purified MHC/competitive/radioactivity; filed as Kd, often an IC50 or EC50 that approximates it; ≥ and ≤ were set here for values at or beyond the usual limits of such assays
HLA-B*40:01 = assay: as above
HLA-B*40:02 = assay: as above
HLA-B*44:02 = assay: as above
HLA-B*44:03 = assay: as above
HLA-B*45:01 = assay: as above
HLA-A*03:01 = assay: IEDB peptide-MHC binding, purified MHC/direct/fluorescence; filed as Kd, often an IC50 or EC50 that approximates it; ≥ and ≤ were set here for values at or beyond the usual limits of such assays; details: source organism: Reston ebolavirus - Reston
HLA-A*02:01 = assay: IEDB peptide-MHC binding, purified MHC/competitive/fluorescence; filed as Kd, often an IC50 or EC50 that approximates it; ≥ and ≤ were set here for values at or beyond the usual limits of such assays; details: source organism: Reston ebolavirus
HLA-A*26:01 = assay: as above; details: source organism: Reston ebolavirus
HLA-A*69:01 = assay: as above; details: source organism: Reston ebolavirus
HLA-B*15:01 = assay: as above; details: source organism: Reston ebolavirus
HLA-B*18:01 [2] = assay: as above; details: source organism: Reston ebolavirus
HLA-B*27:03 = assay: as above; details: source organism: Reston ebolavirus
HLA-B*39:01 = assay: as above; details: source organism: Reston ebolavirus
HLA-B*46:01 = assay: as above; details: source organism: Reston ebolavirus
HLA-B*51:01 = assay: as above; details: source organism: Reston ebolavirus
HLA-B*57:01 = assay: as above; details: source organism: Reston ebolavirus
HLA-B*15:03 = assay: IEDB peptide-MHC binding, purified MHC/competitive/radioactivity; filed as Kd, often an IC50 or EC50 that approximates it; ≥ and ≤ were set here for values at or beyond the usual limits of such assays; details: source organism: Vaccinia virus WR
HLA-B*48:01 = assay: IEDB peptide-MHC binding, purified MHC/direct/fluorescence; filed as Kd, often an IC50 or EC50 that approximates it; ≥ and ≤ were set here for values at or beyond the usual limits of such assays; details: source organism: Giardia lamblia ATCC 50803
[3] = source organism: Mammarenavirus guanaritoense
[4] = source organism: SARS coronavirus Tor2
[5] = source organism: Mammarenavirus machupoense
[6] = source organism: Mammarenavirus lassaense

For ADSLDFTQV, the Kd (HLA-B*18:01 [1]; [3]) was no less than 66500 nM, the Kd (HLA-B*40:01; [3]) was no less than 64900 nM and the Kd (HLA-B*40:02; [3]) was 5850 nM. For the same sequence, the Kd (HLA-B*44:02; [3]) was 12600 nM, the Kd (HLA-B*44:03; [3]) was no less than 33300 nM and the Kd (HLA-B*45:01; [3]) was 6120 nM.

Sequence AEIRASANLA has a Kd (HLA-B*18:01 [1]; [4]) of 8130 nM, a Kd (HLA-B*40:01; [4]) of 202 nM and a Kd (HLA-B*40:02; [4]) of 2250 nM. For the same sequence, the Kd (HLA-B*44:02; [4]) was 80.1 nM, the Kd (HLA-B*44:03; [4]) was 98.6 nM and the Kd (HLA-B*45:01; [4]) was 4.63 nM.

ALYEENALK was tested, and the Kd (HLA-A*03:01) was 1840 nM, the Kd (HLA-A*02:01) was no less than 20000 nM and the Kd (HLA-A*26:01) was no less than 20000 nM. The Kd (HLA-A*69:01) was no less than 20000 nM, the Kd (HLA-B*15:01) was no less than 20000 nM and the Kd (HLA-B*18:01 [2]) was no less than 20000 nM. It also gave a Kd (HLA-B*27:03) of no less than 20000 nM, a Kd (HLA-B*39:01) of no less than 20000 nM and a Kd (HLA-B*46:01) of no less than 20000 nM. The Kd (HLA-B*51:01) was no less than 20000 nM and the Kd (HLA-B*57:01) was no less than 20000 nM.

For EDIAMGYVV, the Kd (HLA-B*18:01 [1]; [5]) was 1500 nM, the Kd (HLA-B*40:01; [5]) was no less than 45300 nM and the Kd (HLA-B*40:02; [5]) was 69.8 nM. For the same sequence, the Kd (HLA-B*44:02; [5]) was 10300 nM, the Kd (HLA-B*44:03; [5]) was no less than 38400 nM and the Kd (HLA-B*45:01; [5]) was 2260 nM.

FELTSMKYF was tested, and the Kd (HLA-B*18:01 [1]; [4]) was 3720 nM, the Kd (HLA-B*40:01; [4]) was 10700 nM and the Kd (HLA-B*40:02; [4]) was 2320 nM. The Kd (HLA-B*44:02; [4]) was 92.7 nM, the Kd (HLA-B*44:03; [4]) was 161 nM and the Kd (HLA-B*45:01; [4]) was no less than 33900 nM.

In the case of FISRNKNIF, the Kd (HLA-B*15:03) is reported as 4030 nM.

Work on FKVTTRRSI yielded a Kd (HLA-B*15:03) of 4.57 nM.

Work on HMPAARPEL yielded a Kd (HLA-B*48:01) of 593 nM.

For IEEIMNIVLI, the Kd (HLA-B*18:01 [1]; [6]) was 3150 nM, the Kd (HLA-B*40:01; [6]) was 1810 nM and the Kd (HLA-B*40:02; [6]) was 98.4 nM. It also gave a Kd (HLA-B*44:02; [6]) of 151 nM, a Kd (HLA-B*44:03; [6]) of 445 nM and a Kd (HLA-B*45:01; [6]) of 1300 nM.
